Measurements published in the supplement of paper PMC10724198.
± gives the standard deviation of the averaged measurements.
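Also: PSI is a weighted mean of sequencing reads over stability bins, variants kept only with over 10 reads, mCherry proximal and sfGFP distal, peptide attached via GGGS linker.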

Each sequence was assayed on Saccharomyces cerevisiae (assay: protein stability index of tFT-peptide fusion (C-terminal peptide) (PSI (0-1 scale)); higher = more stable (slower turnover)). Details: genetic background: wild type; temperature: 30 C.
PSLIRTPTTPSP gave a protein stability index of 0.69 ± 0.018.
With PSLLSPTPPTTD the protein stability index was 0.711 ± 0.075.
PSLPPPPPRAFS was tested, and the protein stability index was 0.649 ± 0.0028.
PSLSPAPLPGLP gave a protein stability index of 0.706 ± 0.042.
With PSNLNASLASRV the protein stability index was 0.655 ± 0.015.
Work on PSPALPVHPPLQ yielded a protein stability index of 0.687 ± 0.011.
Work on PSPARLFVSPSP yielded a protein stability index of 0.649 ± 0.04.
PSPFPPPLPPHL gave a protein stability index of 0.767 ± 0.064.
PSPLCDFTRSSI gave a protein stability index of 0.659 ± 0.025.
Work on PSPLLPAPRRPP yielded a protein stability index of 0.684 ± 0.085.
Work on PSPPASSPPLPL yielded a protein stability index of 0.665 ± 0.02.
With PSPPLPLPLLSV the protein stability index was 0.633 ± 0.029.
With PSPPPAIFPFVS the protein stability index was 0.71 ± 0.059.
PSPPPHGLPRPA was tested, and the protein stability index was 0.675 ± 0.06.
PSPPPLSPPTPR was tested, and the protein stability index was 0.667 ± 0.016.
With PSPPPPGLFPLP the protein stability index was 0.632 ± 0.044.
With PSPPPRRPPAPP the protein stability index was 0.666 ± 0.017.
PSPPPSLLPTPP gave a protein stability index of 0.679 ± 0.063.
In the case of PSPPPTPPLICL, the protein stability index is reported as 0.697 ± 0.025.
With PSPPSHRFPAIP the protein stability index was 0.697 ± 0.0081.
In the case of PSPRPPPPPPPP, the protein stability index is reported as 0.66 ± 0.025.
PSPRSFLSIRFL gave a protein stability index of 0.581 ± 0.013.
PSPTAPGPSIPP showed a protein stability index of 0.667 ± 0.049.
PSRPAHSPPVPP gave a protein stability index of 0.646 ± 0.02.
With PSRSATRPFPLS the protein stability index was 0.707 ± 0.071.
Work on PSRVPSSVPLAP yielded a protein stability index of 0.6864 ± 0.0061.
PSSPPDLAFRPP gave a protein stability index of 0.6157 ± 0.0049.
PSSPPSLRLPPL gave a protein stability index of 0.701 ± 0.044.
Work on PSSRPPPPPPPP yielded a protein stability index of 0.698 ± 0.037.
PSSRRRLLPPPH was tested, and the protein stability index was 0.71 ± 0.12.
For PSSWGRFLRRRP, the protein stability index was 0.7 ± 0.024.
For PSVSPVRLPYLL, the protein stability index was 0.687 ± 0.035.
Work on PTAESFNVRKRD yielded a protein stability index of 0.723 ± 0.086.
With PTAPLIPTGGAP the protein stability index was 0.685 ± 0.029.
PTCALPKLLTHP showed a protein stability index of 0.796 ± 0.021.
With PTDAFFGLCMDC the protein stability index was 0.68 ± 0.038.
In the case of PTGQEFYRGGTR, the protein stability index is reported as 0.6927 ± 0.0047.
In the case of PTGSHARRRPRR, the protein stability index is reported as 0.65 ± 0.023.
Sequence PTLLQPPPPSYP has a protein stability index of 0.704 ± 0.048.
Sequence PTLPGEQPRSWQ has a protein stability index of 0.6701 ± 0.0049.
With PTMKLPLLSCAR the protein stability index was 0.602 ± 0.091.
PTPGSPPPPLHP was tested, and the protein stability index was 0.706 ± 0.02.
With PTPHHPPPHPGP the protein stability index was 0.726 ± 0.042.
In the case of PTPLLTQHPRRP, the protein stability index is reported as 0.72 ± 0.043.
With PTPLRILFALTP the protein stability index was 0.611 ± 0.12.
Sequence PTPMLPNYPWSR has a protein stability index of 0.7431 ± 0.0015.
In the case of PTPPHPTSPPPP, the protein stability index is reported as 0.693 ± 0.01.
Sequence PTPPPAFGFPPP has a protein stability index of 0.688 ± 0.16.
Work on PTPPTAAPAAPR yielded a protein stability index of 0.714 ± 0.053.
PTPPVPPPRTLL gave a protein stability index of 0.667 ± 0.055.
PTPRPTRSPPPP gave a protein stability index of 0.689 ± 0.01.
In the case of PTPSLPCPDHPL, the protein stability index is reported as 0.693 ± 0.0098.
PTQPVPPRTPHY gave a protein stability index of 0.6698 ± 0.0051.
Work on PTRAPVKPDQHP yielded a protein stability index of 0.798 ± 0.072.
In the case of PTTTPPPTPITG, the protein stability index is reported as 0.76 ± 0.065.
Work on PTTTRSKDKVQR yielded a protein stability index of 0.738 ± 0.041.
In the case of PTTVPPGPTSVH, the protein stability index is reported as 0.755 ± 0.058.
PTVKVLSWLAGH showed a protein stability index of 0.703 ± 0.018.
With PVASSPLLPSPS the protein stability index was 0.649 ± 0.061.
PVFDSRDRTFSH was tested, and the protein stability index was 0.713 ± 0.042.
PVHPPAPHPSPP showed a protein stability index of 0.663 ± 0.037.
PVPCNYSPVIHL showed a protein stability index of 0.688 ± 0.029.
PVPKFKEPKIWW was tested, and the protein stability index was 0.698 ± 0.021.
For PVPPGYFLRSPP, the protein stability index was 0.701 ± 0.032.
PVPRPSERSFLL gave a protein stability index of 0.7316 ± 0.0057.
PVPSYYHKPPPL showed a protein stability index of 0.704 ± 0.019.
With PVRFGNCPSILS the protein stability index was 0.7725 ± 0.0012.
In the case of PVSCPPPPLHMS, the protein stability index is reported as 0.661 ± 0.013.
Sequence PVSNVFDLTGMT has a protein stability index of 0.683 ± 0.021.
PVSPCSQRGIFV gave a protein stability index of 0.692 ± 0.01.
In the case of PVVFFSYPLPSF, the protein stability index is reported as 0.699 ± 0.019.
Sequence PWCTPVKRGTSM has a protein stability index of 0.763 ± 0.056.
PWDGFGPYAPYP showed a protein stability index of 0.657 ± 0.081.
PWPLPLPPSSLP gave a protein stability index of 0.684 ± 0.018.
With PWVNLFPCQINI the protein stability index was 0.639 ± 0.02.
PYAHTKGSLGML was tested, and the protein stability index was 0.6352 ± 0.0013.
Work on PYNLSSRPSTLL yielded a protein stability index of 0.625 ± 0.053.
With PYPVRSRPPAPA the protein stability index was 0.6726 ± 0.0039.
With PYSFDTNFVLIS the protein stability index was 0.643 ± 0.1.
In the case of PYTPRSTSPPPL, the protein stability index is reported as 0.7702 ± 0.0066.
QAGSTEERFCGG gave a protein stability index of 0.664 ± 0.02.
QAKKSLTTKTSD gave a protein stability index of 0.658 ± 0.024.
For QASRGSLPSEIE, the protein stability index was 0.6414 ± 0.0029.
Sequence QCESVRLNFGGR has a protein stability index of 0.704 ± 0.021.
Sequence QDAPPSTPPRPL has a protein stability index of 0.786 ± 0.15.
Work on QDFDHPNSIRLP yielded a protein stability index of 0.671 ± 0.027.
QEKTKTYPIPQR gave a protein stability index of 0.688 ± 0.041.
In the case of QERWGRGWGTRG, the protein stability index is reported as 0.709 ± 0.072.
In the case of QESKRKDMKERN, the protein stability index is reported as 0.75 ± 0.049.
With QEVTEVFSSTSY the protein stability index was 0.658 ± 0.01.
In the case of QEWAQYTHSEQP, the protein stability index is reported as 0.735 ± 0.026.
QFDRDCAWRPDV gave a protein stability index of 0.653 ± 0.039.
For QFGPSENVEFRS, the protein stability index was 0.742 ± 0.036.
For QGDPTCLKGINE, the protein stability index was 0.669 ± 0.05.
For QGGREGSRQRRV, the protein stability index was 0.629 ± 0.013.
QGIKRPSSNKSK was tested, and the protein stability index was 0.731 ± 0.13.
QGNEQFRYKILQ was tested, and the protein stability index was 0.598 ± 0.098.
Sequence QGSRRPRSVVWG has a protein stability index of 0.708 ± 0.038.
Work on QGTNKRRNKNWE yielded a protein stability index of 0.704 ± 0.03.
For QGVGDILARVQG, the protein stability index was 0.697 ± 0.048.
In the case of QHFIRGWAWPTV, the protein stability index is reported as 0.729 ± 0.034.
With QHHRTSIPSSPV the protein stability index was 0.671 ± 0.025.
In the case of QIGKQAAATGTA, the protein stability index is reported as 0.708 ± 0.049.
With QIHGQKNFKTLD the protein stability index was 0.704 ± 0.078.
Sequence QIIRKKSKVPTH has a protein stability index of 0.686 ± 0.057.
Sequence QKDTGKETTYRA has a protein stability index of 0.681 ± 0.037.
Sequence QKKELKTKKKER has a protein stability index of 0.663 ± 0.016.
In the case of QKKKKKNTKKKL, the protein stability index is reported as 0.701 ± 0.054.
QKKNQNKQEQKL showed a protein stability index of 0.683 ± 0.021.
QKKNSKKIKPKR showed a protein stability index of 0.694 ± 0.026.
For QKKRKKTNQKNL, the protein stability index was 0.621 ± 0.041.
QKNKNTEKINTK gave a protein stability index of 0.663 ± 0.018.
For QKRKQKKIIQRM, the protein stability index was 0.652 ± 0.013.
Sequence QKTLKPEQVAEH has a protein stability index of 0.68 ± 0.027.
For QKTVRDIRIAAL, the protein stability index was 0.591 ± 0.086.
With QLETFGRDLTIP the protein stability index was 0.716 ± 0.11.
For QLGGLHIPHPLR, the protein stability index was 0.899 ± 0.028.
QNKKNKNKKKKE gave a protein stability index of 0.706 ± 0.027.
QNKTQKSKKKKS gave a protein stability index of 0.734 ± 0.038.
QPPLSDYHQARR was tested, and the protein stability index was 0.683 ± 0.023.
Work on QPPPPPPRPPPP yielded a protein stability index of 0.504 ± 0.016.
Work on QPPPPSPPPPLP yielded a protein stability index of 0.653 ± 0.047.
In the case of QPTCSLRAGPRD, the protein stability index is reported as 0.713 ± 0.036.
QPVGAAQWGSQS was tested, and the protein stability index was 0.715 ± 0.028.
With QQRKGTKDNGRE the protein stability index was 0.707 ± 0.095.
Work on QREKGEKERTET yielded a protein stability index of 0.6783 ± 0.004.
In the case of QRGGEGWILGGV, the protein stability index is reported as 0.687 ± 0.026.
With QRPSRAQGKSYE the protein stability index was 0.766 ± 0.014.
QRRRYKHEIKRM gave a protein stability index of 0.648 ± 0.0085.
Work on QRSEHGAHPTEP yielded a protein stability index of 0.701 ± 0.035.
For QRSFSLRLSAPV, the protein stability index was 0.681 ± 0.029.
For QRTAACGSQRNR, the protein stability index was 0.682 ± 0.025.
In the case of QSILVCELGMEG, the protein stability index is reported as 0.67 ± 0.051.
QSKIKNKNIKIK showed a protein stability index of 0.671 ± 0.017.
QSLRRLSSSSCI gave a protein stability index of 0.707 ± 0.058.
Sequence QSRAMFELMGIS has a protein stability index of 0.652 ± 0.004.
For QSRHCHPTPKRL, the protein stability index was 0.65 ± 0.031.
Work on QSRYASDLRNGL yielded a protein stability index of 0.699 ± 0.065.
With QSSWVGRWVRGG the protein stability index was 0.659 ± 0.02.
QSVSSTGQARLS was tested, and the protein stability index was 0.682 ± 0.033.
In the case of QSWVNIGCRGAW, the protein stability index is reported as 0.72 ± 0.012.
QTATIKGTLIAM showed a protein stability index of 0.585 ± 0.0076.
Sequence QTDRPPPVSPPR has a protein stability index of 0.671 ± 0.047.
QTKSPAKREKTC showed a protein stability index of 0.665 ± 0.058.
Sequence QTVFRQRLKEPF has a protein stability index of 0.644 ± 0.038.
QVFTLFPASYPL showed a protein stability index of 0.688 ± 0.057.
QVKESDGEATKS gave a protein stability index of 0.592 ± 0.024.
QVPDPSVNQPPS gave a protein stability index of 0.699 ± 0.028.
With QWAAVCAVVGGG the protein stability index was 0.684 ± 0.055.
QWAGGQERTAGK showed a protein stability index of 0.583 ± 0.024.
With QWIINVSRSIRK the protein stability index was 0.654 ± 0.031.
With RAARQRSVYQHG the protein stability index was 0.6481 ± 0.0037.
Work on RACSLWVSVVQP yielded a protein stability index of 0.67873 ± 2.3e-05.
RADGHGARFRVR showed a protein stability index of 0.799 ± 0.009.
With RAFDGYNSVDML the protein stability index was 0.663 ± 0.023.
In the case of RAKLKKNKRRCK, the protein stability index is reported as 0.719 ± 0.0067.
Sequence RALGKRFIQARD has a protein stability index of 0.727 ± 0.022.
RALPPPLCPPPH was tested, and the protein stability index was 0.606 ± 0.056.
With RAPMQPTATQAP the protein stability index was 0.654 ± 0.035.
In the case of RAPPKTTPHPAE, the protein stability index is reported as 0.693 ± 0.052.
